Where a chain is given by its changes, count along the chain named. Names may count otherwise.
Molecular target: the molecule itself
Assay: cryo-EM structure

B1: wild-type (WT) human asparagine synthetase (ASNS) (enzyme, UniProt P08243 1-561, looked up)
chain: MCGIWALFGSDDCLSVQCLSAMKIAHRGPDAFRFENVNGYTNCCFGFHRLAVVDPLFGMQPIRVKKYPYLWLCYNGEIYNHKKMQQHFEFEYQTKVDGEIILHLYDKGGIEQTICMLDGVFAFVLLDTANKKVFLGRDTYGVRPLFKAMTEDGFLAVCSEAKGLVTLKHSATPFLKVEPFLPGHYEVLDLKPNGKVASVEMVKYHHCRDVPLHALYDNVEKLFPGFEIETVKNNLRILFNNAVKKRLMTDRRIGCLLSGGLDSSLVAATLLKQLKEAQVQYPLQTFAIGMEDSPDLLAARKVADHIGSEHYEVLFNSEEGIQALDEVIFSLETYDITTVRASVGMYLISKYIRKNTDSVVIFSGEGSDELTQGYIYFHKAPSPEKAEEESERLLRELYLFDVLRADRTTAAHGLELRVPFLDHRFSSYYLSLPPEMRIPKNGIEKHLLRETFEDSNLIPKEILWRPKEAFSDGITSVKNSWFKILQEYVEHQVDDAMMANAAQKFPFNTPKTKEGYYYRQVFERHYPGRADWLSHYWMPKWINATDPSARTLTHYKSAVKA
stoichiometry N: 2

B2: R142I variant of human asparagine synthetase (ASNS) (enzyme, UniProt P08243 1-561, looked up)
chain: B1 chain with R143I
stoichiometry N: 2
